Biological target: FLAG-ZO-2 (UniProt Q9UDY2)
Assay: GST pull-down from cell lysate
Conditions: reference: GST-OccC not prephosphorylated; sites T400,T404,S408

binding against the reference: weaker
Substance: occludin C-terminal cytoplasmic tail, 263-523 (from UniProt Q16625) GST-OccC prephosphorylated by CK2
